Test system: recombinant human cathelin-like protein (cathelin-like domain of hCAP18, residues 31-131), after removal of the N-terminal tag with enterokinase
Sequence (chain, as listed by the source): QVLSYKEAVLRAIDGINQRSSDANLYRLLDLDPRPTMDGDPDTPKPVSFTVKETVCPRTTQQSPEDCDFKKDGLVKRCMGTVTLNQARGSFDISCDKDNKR

Chain of human liver cathepsin L (Calbiochem) (chain, as listed by the source): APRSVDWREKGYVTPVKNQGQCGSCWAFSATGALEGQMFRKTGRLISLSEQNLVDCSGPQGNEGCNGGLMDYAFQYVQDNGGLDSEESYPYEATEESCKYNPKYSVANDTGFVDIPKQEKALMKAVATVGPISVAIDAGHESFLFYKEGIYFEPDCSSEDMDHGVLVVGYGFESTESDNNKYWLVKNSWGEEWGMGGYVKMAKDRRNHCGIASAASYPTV

human liver cathepsin L (Calbiochem) was tested, and the “hydrolysis of Z-Phe-Arg-AMC by cathepsin L alone and with cathelin-like protein” value was “Data demonstrate inhibition of cathepsin L by the addition of cathelin-like recombinant protein” and the “slope of fluorescence generation (Z-Phe-Arg-AMC hydrolysis) with cathelin-like protein; cathepsin L alone gave 1.31” value was “slope=1.31 vs 0.71, respectively”.

From patent publication US7173007
